The values below come from paper PMC6420652 (2019).

B1: Clover-AZIN (antizyme inhibitor with an N-terminal Clover tag) [human] / antizyme-mRuby2 (antizyme with a C-terminal mRuby2 tag) [human] (parent complex)
chain 1: MKGFIDDANYSVGLLDEGTNLGNVIDNYVYEHTLTGKNAFFVGDLGKIVKKHSQWQNVVAQIKPFYTVKCNSAPAVLEILAALGTGFACSSKNEMALVQELGVPPENIIYISPCKQVSQIKYAAKVGVNILTCDNEIELKKIARNHPNAKVLLHIATEDNIGGEEGNMKFGTTLKNCRHLLECAKELDVQIIGVKFHVSSACKESQVYVHALSDARCVFDMAGEIGFTMNMLDIGGGFTGTEFQLEEVNHVISPLLDIYFPEGSGVKIISEPGSYYVSSAFTLAVNIIAKKVVENDKFPSGVEKTGSDEPAFMYYMNDGVYGSFASKLSEDLNTIPEVHKKYKEDEPLFTSSLWGPSCDELDQIVESCLLPELNVGDWLIFDNMGADSFHEPSAFNDFQRPAIYYMMSFSDWYEMQDAGITSDSMMKNFFFVPSCIQLSQEDSFSAEA
chain 2: not shown

Variants of B1 are the subject of one test. The experiment in a line: FRET titration; Clover-containing proteins 50 nM; titration of AZ-mRuby2; parent: 22.2 nM.
On to chain 1 S329Y, for which the Kd was 0.0286 µM.

A further test covers variants of B1. The experiment in a line: FRET titration; parent: 24 nM; read off a plot.
As for chain 1 S329A, the Kd was around 0.024 µM.

With chain 1 K169A, the Kd was around 0.021 µM.

Consider chain 1 E138A, for which the Kd was around 0.02 µM.

As for chain 1 D134A, the Kd was around 0.018 µM.

In the case of chain 1 C114A, the Kd is around 0.028 µM.

Take chain 1 F398A: the Kd is around 0.023 µM.

For the variant chain 1 L139A, the Kd was around 0.0093 µM.

As to chain 1 D359A, the Kd is around 0.041 µM.

For the variant chain 1 F395A, the Kd is around 0.058 µM.

On to chain 1 E136A, for which the Kd was around 0.02 µM.

chain 1 S118A: the Kd was around 0.015 µM.

Turning to chain 1 S91A, the Kd was around 0.026 µM.

In the case of chain 1 K115A, the Kd is around 0.023 µM.

chain 1 N93A: the Kd is around 0.035 µM.

As to chain 1 D214A, the Kd was around 0.027 µM.

On to chain 1 D423A, for which the Kd is around 0.023 µM.

As to chain 1 F170A, the Kd was around 0.027 µM.

Turning to chain 1 E391A, the Kd was around 0.012 µM.

For the variant chain 1 K92A, the Kd was around 0.025 µM.

For the variant chain 1 Y321A, the Kd was around 0.027 µM.

For chain 1 L328A, the Kd was around 0.026 µM.

As for chain 1 S367A, the Kd is around 0.039 µM.

Consider chain 1 Q116A, for which the Kd is around 0.021 µM.

Turning to chain 1 K141A, the Kd was around 0.019 µM.

With chain 1 L361A, the Kd was around 0.055 µM.

chain 1 R144A: the Kd is around 0.01 µM.

For the variant chain 1 S393A, the Kd is around 0.025 µM.

On to chain 1 E366A, for which the Kd was around 0.031 µM.

With chain 1 N396A, the Kd was around 0.047 µM.

With chain 1 K175A, the Kd is around 0.03 µM.

chain 1 K63A: the Kd was around 0.023 µM.

chain 1 M168A: the Kd is around 0.021 µM.

As to chain 1 K69A, the Kd is around 0.021 µM.

For chain 1 Q119A, the Kd is around 0.0096 µM.
